Data taken from publication PMC5296908.

Target: ADAMTS17-PCD (human)
Experiment: SPR; ADAMTS17-PCD (3300 RU) or ADAMTS17-AD (2530 RU) amine-coupled to a CM5 chip, BIAcore 3000; analytes flowed at 20 μl/min; 25 °C; TBS with 2 mM CaCl2 and 0.005% SP20; 1:1 stoichiometry assumed

Kd: 1.4 µM
Substance: ADAMTS17-PCD (domain or fragment)
